Common to all, as to details: both partners purified
For experiment [1], the target named is T1, BICD2(2–422)::Strep-tag II (human, UniProt Q8TD16 2-422).
T1 construct: human bicaudal D homolog 2 (BICD2), N-terminal region, residues 2-422; also called bicaudal D homolog 2; source: E. coli BL21, purified (Ni-NTA, TEV cleavage, Strep-Tactin; dialysis or SEC); not shown: 6xHis::MBP, N-terminal, cleaved; Strep-tag II (after linker GSGSGR), C-terminal, kept
The experiment is described as follows: SPR; Biacore 3000; His-tagged LIC1 immobilised on NTA chip (200–300 RU), Strep-tagged adaptor as analyte; HBS-P (10 mM HEPES, 150 mM NaCl, 0.005% surfactant P20, pH 7.4). (In SPR one partner is held on a chip, and binding of the other changes the refractive index at the surface.)

For experiment [2], the target named is T2, HOOK3(2–239)::Strep-tag II (human, UniProt Q86VS8 2-239).
T2 construct: human Hook homolog 3 (HOOK3), residues 2-239; used for NMR, SPR and MST; also called Hook homolog 3; source: E. coli Rosetta, purified (Ni-NTA, TEV cleavage, Strep-Tactin; dialysis or SEC); not shown: 6xHis::MBP, N-terminal, cleaved; Strep-tag II (after linker GSGSGR), C-terminal, kept
T2 sequence (looked up): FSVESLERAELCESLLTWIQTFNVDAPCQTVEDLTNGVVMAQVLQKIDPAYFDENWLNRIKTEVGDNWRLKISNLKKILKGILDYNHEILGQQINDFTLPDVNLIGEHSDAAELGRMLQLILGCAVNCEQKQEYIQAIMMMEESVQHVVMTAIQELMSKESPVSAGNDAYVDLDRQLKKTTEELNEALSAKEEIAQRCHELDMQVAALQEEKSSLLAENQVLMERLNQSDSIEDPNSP
The experiment is described as above.

Experiment [3] has as its target T3, SPDL1(2–359)::Strep-tag II (human, UniProt Q96EA4 2-359).
T3 construct: human Spindly (SPDL1), N-terminal region, residues 2-359; also called Spindly; source: E. coli BL21, purified (Ni-NTA, TEV cleavage, Strep-Tactin; dialysis or SEC); not shown: 6xHis::MBP, N-terminal, cleaved; Strep-tag II (after linker GSGSGR), C-terminal, kept
T3 sequence (looked up): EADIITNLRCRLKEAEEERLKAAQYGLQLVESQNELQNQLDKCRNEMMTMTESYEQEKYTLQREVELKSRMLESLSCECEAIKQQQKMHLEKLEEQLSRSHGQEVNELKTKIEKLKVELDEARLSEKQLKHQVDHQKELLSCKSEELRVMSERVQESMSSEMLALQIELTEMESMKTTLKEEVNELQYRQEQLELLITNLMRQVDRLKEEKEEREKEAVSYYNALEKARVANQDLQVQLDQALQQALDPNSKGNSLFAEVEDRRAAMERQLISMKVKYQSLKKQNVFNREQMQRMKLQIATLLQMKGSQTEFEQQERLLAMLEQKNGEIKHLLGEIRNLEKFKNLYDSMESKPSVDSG
Described as above.

Experiment [4] has as its target T1, BICD2(2–422)::Strep-tag II. Briefly: MST; 10 nM LIC1(388–523)::6xHis labelled with Red-Tris NTA dye; 16 two-fold dilutions of adaptor::Strep-tag II; 25°C.
Experiment [5] concerns the target T2, HOOK3(2–239)::Strep-tag II. The description is as above.
For experiment [6], the target named is T3, SPDL1(2–359)::Strep-tag II. The experiment is described as above.

T1 sequence (Q8TD16 2-422): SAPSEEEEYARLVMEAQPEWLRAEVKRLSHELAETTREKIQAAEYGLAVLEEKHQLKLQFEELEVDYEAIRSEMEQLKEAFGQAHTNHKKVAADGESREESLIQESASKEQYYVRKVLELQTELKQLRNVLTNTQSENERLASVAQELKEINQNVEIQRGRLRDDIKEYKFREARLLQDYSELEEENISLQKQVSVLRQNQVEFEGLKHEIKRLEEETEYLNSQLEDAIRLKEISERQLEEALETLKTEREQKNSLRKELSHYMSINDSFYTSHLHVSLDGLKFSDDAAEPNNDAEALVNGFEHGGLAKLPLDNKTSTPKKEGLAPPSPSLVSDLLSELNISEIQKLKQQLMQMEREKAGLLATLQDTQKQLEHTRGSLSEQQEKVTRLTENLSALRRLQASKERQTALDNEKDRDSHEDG

B1: LIC1(388–523)::6xHis (domain or fragment, human)
chain: WPTAAGRPVDASPRVPGGSPRTPNRSVSSNVASVSPIPAGSKKIDPNMKAGATSEGVLANFFNSLLSKKTGSPGGPGVSGGSPAGGAGGGSSGLPPSTKKSGQKPVLDVHAELDRITRKPVTVSPTTPTSPTEGEAS
notes: single N-terminal tryptophan added in the construct; 15N-labelled for the NMR titration; labelled with Red-Tris NTA dye on the His tag for MST; also called LIC1-C; LIC1-C::6xHis; source: E. coli BL21, purified (GSTrap, PreScission cleavage, second GSTrap, SEC Superdex 75); not shown: GST, N-terminal, cleaved; 6xHis (after linker GSGSG), C-terminal, kept
For the molecule B1, the equilibrium dissociation constant (Kd) amounted to 1.07 µM in experiment [1]; 1.9 µM in experiment [2]; 5.7 µM in experiment [3]; 6 µM in experiment [4]; 4 µM in experiment [5]; 13.1 µM in experiment [6].

Usually Kd stands for the constant that tells how readily two partners part at equilibrium. The low end stands for higher affinity, the high end for lower affinity.

The record behind these values is paper PMC6336354, “A transient helix in the disordered region of dynein light intermediate chain links the motor to structurally diverse adaptors for cargo transport” (PLoS Biology, 2019).
